B1: parental anti-CTLA4 antibody (9D9), murine IgG2a (antibody)
light: DIVMTQTTLSLPVSLGDQASISCRSSQSIVHSNGNTYLEWYLQKPGQSPKLLIYKVSNRFSGVPDRFSGSGSGTDFTLKISRVEAEDLGVYYCFQGSHVPYTFGGGTKLEIKRADAAPTVSIFPPSSEQLTSGGASVVCFLNNFYPKDINVKWKIDGSERQNGVLNSWTDQDSKDSTYSMSSTLTLTKDEYERHNSYTCEATHKTSTSPIVKSFNRNEC
heavy: EAKLQESGPVLVKPGASVKMSCKASGYTFTDYYMNWVKQSHGKSLEWIGVINPYNGDTSYNQKFKGKATLTVDKSSSTAYMELNSLTSEDSAVYYCARYYGSWFAYWGQGTLITVSSAKTTAPSVYPLAPVCGDTTGSSVTLGCLVKGYFPEPVTLTWNSGSLSSGVHTFPAVLQSDLYTLSSSVTVTSSTWPSQSITCNVAHPASSTKVDKKIEPRGPTIKPCPPCKCPAPNLLGGPSVFIFPPKIKDVLMISLSPIVTCVVVDVSEDDPDVQISWFVNNVEVHTAQTQTHREDYNSTLRVVSALPIQHQDWMSGKEFKCKVNNKDLPAPIERTISKPKGSVRAPQVYVLPPPEEEMTKKQVTLTCMVTDFMPEDIYVEWTNNGKTELNYKNTEPVLDSDGSYFMYSKLRVEKKNWVERNSYSCSVVHEGLHNHHTTKSFSRTPGK
notes: Made at ATUM by HEK293 transient expression as murine IgG2a; reactive against murine CTLA4; also called 9D9.IgG2a; 9D9 IgG2a

What was measured:
[1] = molecular target: T1, muCTLA4hsIgG protein (Abcam) (murine, UniProt P09793 36-161, limits assumed); test: low density antigen binding ELISA, muCTLA4hsIgG coated; average of three experiments
T1 construct: Bought; also called murine CTLA4; not shown: human IgG part (hsIgG)

[2] = molecular target: T2, murine CTLA4-Fc (R&D Systems) (murine, UniProt P09793 36-162); test: ELISA: plate coated with murine CTLA4-Fc (R&D Systems), detection anti-muKappa-HRP, chemiluminescence (Example 3A)
T2 construct: Bought; also called muCTLA4-hsIgG (R&D Systems); not shown: human IgG Fc part (hsIgG)

[3] = molecular target: T1, muCTLA4hsIgG protein (Abcam); test: low density antigen binding ELISA, 3 ng muCTLA4hsIgG per well
[4] = molecular target: T2, murine CTLA4-Fc (R&D Systems); test: ELISA, plate-coated murine CTLA4-Fc, anti-muKappa-HRP; ratio of EC50s
[5] = molecular target: T3, human CTLA4-Fc (R&D Systems, #7268-CT) (human, UniProt P16410 36-162); test: CTLA4 ELISA (luminescence) after culture of Antibody 2-16 in colon tumor conditioned media; the text gives 100% of molecules cleaved
T3 construct: Bought; not shown: Fc part

[6] = molecular target: B1; test: SPR, Biacore T200, 37 C; 9D9 coupled to CM5 chip, peptide as analyte; steady-state model
[7] = molecular target: T3, human CTLA4-Fc (R&D Systems, #7268-CT); test: ELISA, human CTLA4-Fc coated; protease -
[8] = molecular target: CTLA4 on CTLA4 expressing Jurkat cells (UniProt P16410 36-223, limits assumed); test: cell-based or functional assay
[9] = molecular target: T3, human CTLA4-Fc (R&D Systems, #7268-CT); test: ELISA, human CTLA4-Fc coated; protease -; remark: listed apart in the source
[10] = molecular target: T4, CTLA4 coated on an MSD plate (Homo sapiens (Human), UniProt P16410 36-161); test: binding to a CTLA4-coated MSD plate; antibody from plasma of MB49-bearing B-hCTLA4 mice 4 days after 10 mg/kg, IgG quantified by ELISA, 3-fold dilutions (Example 16)
T4 construct: not shown: The carrier of the coated recombinant CTLA4; It is probably the Fc of a CTLA4-Fc, as in the other ELISAs

[11] = molecular target: T3, human CTLA4-Fc (R&D Systems, #7268-CT); test: ELISA, human CTLA4-Fc coated; protease +
[12] = molecular target: T3, human CTLA4-Fc (R&D Systems, #7268-CT); test: CTLA4 ELISA (luminescence) after culture of the antibody in RPMI as control
[13] = molecular target: T3, human CTLA4-Fc (R&D Systems, #7268-CT); test: low density antigen binding ELISA, human CTLA4-Fc coated; no protease
[14] = molecular target: T3, human CTLA4-Fc (R&D Systems, #7268-CT); test: CTLA4 ELISA (luminescence) after culture of the antibody in colon tumor conditioned media
[15] = molecular target: T3, human CTLA4-Fc (R&D Systems, #7268-CT); test: low density antigen binding ELISA, human CTLA4-Fc coated; control not exposed to protease
[16] = molecular target: T3, human CTLA4-Fc (R&D Systems, #7268-CT); test: CTLA4 ELISA (luminescence) after culture of Antibody 2-14 in colon tumor conditioned media; the text gives 100% of molecules cleaved
[17] = molecular target: T3, human CTLA4-Fc (R&D Systems, #7268-CT); test: low density antigen binding ELISA, human CTLA4-Fc coated; after protease digestion
[18] = molecular target: T3, human CTLA4-Fc (R&D Systems, #7268-CT); test: ELISA, human CTLA4-Fc coated; protease +; remark: listed apart in the source
[19] = molecular target: T4, CTLA4 coated on an MSD plate; test: binding to a CTLA4-coated MSD plate; antibody from plasma of MB49-bearing B-hCTLA4 mice 4 days after 10 mg/kg (28 % cleaved by FIG. 24D), IgG quantified by ELISA, 3-fold dilutions (Example 16)
[20] = molecular target: T3, human CTLA4-Fc (R&D Systems, #7268-CT); test: CTLA4 ELISA (luminescence) after culture of the masked antibody in RPMI as control
[21] = molecular target: T3, human CTLA4-Fc (R&D Systems, #7268-CT); test: CTLA4 ELISA (luminescence) after culture of the non-cleavable masked antibody in RPMI as control
[22] = molecular target: T3, human CTLA4-Fc (R&D Systems, #7268-CT); test: CTLA4 ELISA (luminescence) after culture of the non-cleavable masked antibody in colon tumor conditioned media

Chain of CTLA4 on CTLA4 expressing Jurkat cells (P16410 36-223 limits assumed): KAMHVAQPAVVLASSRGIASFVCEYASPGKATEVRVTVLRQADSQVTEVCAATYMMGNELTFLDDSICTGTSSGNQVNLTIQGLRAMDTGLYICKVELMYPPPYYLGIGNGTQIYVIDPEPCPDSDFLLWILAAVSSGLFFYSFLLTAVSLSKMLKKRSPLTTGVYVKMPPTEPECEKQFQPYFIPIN
T3 sequence (P16410 36-162 limits assumed): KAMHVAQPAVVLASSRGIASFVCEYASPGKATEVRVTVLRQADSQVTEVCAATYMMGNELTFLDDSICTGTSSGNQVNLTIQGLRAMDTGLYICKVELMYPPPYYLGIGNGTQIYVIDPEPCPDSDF
T4 sequence (P16410 36-161 limits assumed): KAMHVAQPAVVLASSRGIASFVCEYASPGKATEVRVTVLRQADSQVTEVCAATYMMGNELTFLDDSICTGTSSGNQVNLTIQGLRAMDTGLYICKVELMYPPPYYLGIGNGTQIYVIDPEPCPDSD

B1
EC50 [1]: 0.31 nM
EC50 (read off the curve) [2]: ~0.2 nM

B2: activatable masked anti-CTLA4 antibody (masked 9D9) (antibody, mouse IgG2a, kappa)
light: ACNLIVEGHCGGSVPLSLYSGGGDIVMTQTTLSLPVSLGDQASISCRSSQSIVHSNGNTYLEWYLQKPGQSPKLLIYKVSNRFSGVPDRFSGSGSGTDFTLKISRVEAEDLGVYYCFQGSHVPYTFGGGTKLEIKRADAAPTVSIFPPSSEQLTSGGASVVCFLNNFYPKDINVKWKIDGSERQNGVLNSWTDQDSKDSTYSMSSTLTLTKDEYERHNSYTCEATHKTSTSPIVKSFNRNEC
heavy: EAKLQESGPVLVKPGASVKMSCKASGYTFTDYYMNWVKQSHGKSLEWIGVINPYNGDTSYNQKFKGKATLTVDKSSSTAYMELNSLTSEDSAVYYCARYYGSWFAYWGQGTLITVSSAKTTAPSVYPLAPVCGDTTGSSVTLGCLVKGYFPEPVTLTWNSGSLSSGVHTFPAVLQSDLYTLSSSVTVTSSTWPSQSITCNVAHPASSTKVDKKIEPRGPTIKPCPPCKCPAPNLLGGPSVFIFPPKIKDVLMISLSPIVTCVVVDVSEDDPDVQISWFVNNVEVHTAQTQTHREDYNSTLRVVSALPIQHQDWMSGKEFKCKVNNKDLPAPIERTISKPKGSVRAPQVYVLPPPEEEMTKKQVTLTCMVTDFMPEDIYVEWTNNGKTELNYKNTEPVLDSDGSYFMYSKLRVEKKNWVERNSYSCSVVHEGLHNHHTTKSFSRTPGK
notes: Murine IgG2a; also called masked anti-CTLA4 antibody 2
EC50 [1]: 48.4 nM
fold lower binding than parental anti-CTLA4 antibody [3]: ~156 fold
fold lower binding than parental anti-CTLA4 antibody (9D9) [4]: 90 fold

B3: Antibody 2-16 (colon tumor) (antibody)
heavy chain: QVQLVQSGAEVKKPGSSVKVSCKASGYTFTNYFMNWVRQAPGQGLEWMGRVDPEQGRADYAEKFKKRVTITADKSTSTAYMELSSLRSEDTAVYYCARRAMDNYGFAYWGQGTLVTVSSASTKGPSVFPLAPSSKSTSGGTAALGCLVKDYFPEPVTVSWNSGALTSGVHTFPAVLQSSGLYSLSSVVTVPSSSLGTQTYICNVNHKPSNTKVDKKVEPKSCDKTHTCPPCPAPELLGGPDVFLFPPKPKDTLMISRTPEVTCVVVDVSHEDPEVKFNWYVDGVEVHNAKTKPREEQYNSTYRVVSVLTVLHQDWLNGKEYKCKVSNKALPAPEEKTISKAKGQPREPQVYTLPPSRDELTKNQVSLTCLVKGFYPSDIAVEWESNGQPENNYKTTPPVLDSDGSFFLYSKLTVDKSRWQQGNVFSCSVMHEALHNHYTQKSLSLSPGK
light chain with masking components, cleaved: SGGEIVLTQSPDFQSVTPKEKVTITCSANSALSYMYWYQQKPDQSPKLWVHGTSNLASGVPSRFSGSGSGTDFTLTINSLEAEDAATYYCHHWSNTQWTFGGGTKVEIKRTVAAPSVFIFPPSDEQLKSGTASVVCLLNNFYPREAKVQWKVDNALQSGNSQESVTEQDSKDSTYSLSSTLTLSKADYEKHKVYACEVTHQGLSSPVTKSFNRGEC
notes: also called Antibody 2-16 after culture in colon tumor conditioned media (colon2 4 sept colon tumor sample)
EC50 (read off the curve) [5]: ~0.4 nM

B4: masking peptide CNLIVEGHC (peptide)
peptide: CNLIVEGHC
notes: Selected from the Ph.D.-C7C phage library; also called sterically occluded peptide
Kd [6]: 11000 nM

B5: Antibody 2-6 (antibody, human IgG1, kappa)
light: EIVLTQSPDFQSVTPKEKVTITCSANSALSYMYWYQQKPDQSPKLWVHGTSNLASGVPSRFSGSGSGTDFTLTINSLEAEDAATYYCHHWSNTQWTFGGGTKVEIKRTVAAPSVFIFPPSDEQLKSGTASVVCLLNNFYPREAKVQWKVDNALQSGNSQESVTEQDSKDSTYSLSSTLTLSKADYEKHKVYACEVTHQGLSSPVTKSFNRGEC
heavy: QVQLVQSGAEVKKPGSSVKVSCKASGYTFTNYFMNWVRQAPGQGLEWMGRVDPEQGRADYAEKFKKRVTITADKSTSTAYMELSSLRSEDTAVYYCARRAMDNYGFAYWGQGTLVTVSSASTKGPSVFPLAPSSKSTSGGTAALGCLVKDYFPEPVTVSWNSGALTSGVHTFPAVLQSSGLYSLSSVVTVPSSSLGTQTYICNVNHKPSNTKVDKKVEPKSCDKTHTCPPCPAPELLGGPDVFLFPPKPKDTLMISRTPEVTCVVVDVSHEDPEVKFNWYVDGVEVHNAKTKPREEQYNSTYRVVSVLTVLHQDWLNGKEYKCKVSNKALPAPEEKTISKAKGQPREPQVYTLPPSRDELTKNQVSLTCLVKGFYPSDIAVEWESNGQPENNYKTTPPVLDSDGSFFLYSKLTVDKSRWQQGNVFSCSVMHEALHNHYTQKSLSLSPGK
notes: Unmasked version of Antibody 2 with S239D and I332E in the Fc region; also called unmasked parental antibody; parental unmasked Antibody 2-6
EC50 [7]: 0.39 nM
EC50 of FcγRIIIa (ADCC) reporter activation, after exposure to protease [8]: 0.0049 ng/mL
EC50 of FcγRIIIa (ADCC) reporter activation, without protease [8]: 0.008 ng/mL
EC50 [9]: 0.69 nM
EC50 (read off the curve) [10]: ~7 ng/mL
EC50 [11]: 0.39 nM
EC50 (read off the curve) [12]: ~0.6 nM
EC50 [13]: 0.69 nM
EC50 (read off the curve) [14]: ~0.4 nM
EC50 [15]: 0.69 nM

B6: Antibody 2-14, activated by protease (antibody)
light: EIVLTQSPDFQSVTPKEKVTITCSANSALSYMYWYQQKPDQSPKLWVHGTSNLASGVPSRFSGSGSGTDFTLTINSLEAEDAATYYCHHWSNTQWTFGGGTKVEIKRTVAAPSVFIFPPSDEQLKSGTASVVCLLNNFYPREAKVQWKVDNALQSGNSQESVTEQDSKDSTYSLSSTLTLSKADYEKHKVYACEVTHQGLSSPVTKSFNRGEC
heavy: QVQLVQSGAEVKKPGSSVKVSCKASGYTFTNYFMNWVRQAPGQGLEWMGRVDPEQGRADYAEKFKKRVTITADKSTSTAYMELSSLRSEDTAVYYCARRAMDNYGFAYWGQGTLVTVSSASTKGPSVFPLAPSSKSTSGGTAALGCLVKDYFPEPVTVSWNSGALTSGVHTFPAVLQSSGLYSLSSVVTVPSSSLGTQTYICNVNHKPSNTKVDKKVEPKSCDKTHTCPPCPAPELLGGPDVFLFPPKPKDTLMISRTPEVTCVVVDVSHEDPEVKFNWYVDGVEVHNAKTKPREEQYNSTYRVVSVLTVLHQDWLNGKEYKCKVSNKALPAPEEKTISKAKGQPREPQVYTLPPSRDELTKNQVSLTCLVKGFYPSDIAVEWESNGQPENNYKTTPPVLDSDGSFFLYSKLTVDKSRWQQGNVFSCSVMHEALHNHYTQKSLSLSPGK
notes: also called Antibody 2-14 with protease (+); not shown: remnant of the cleaved linker (part of VPLSLY and spacer SGG)
EC50 of FcγRIIIa (ADCC) reporter activation, after exposure to protease [8]: 0.0028 ng/mL
EC50 [11]: 0.41 nM
EC50 (read off the curve) [16]: ~0.4 nM

B7: Antibody 2-7 (Activated) (antibody)
light: EIVLTQSPDFQSVTPKEKVTITCSANSALSYMYWYQQKPDQSPKLWVHGTSNLASGVPSRFSGSGSGTDFTLTINSLEAEDAATYYCHHWSNTQWTFGGGTKVEIKRTVAAPSVFIFPPSDEQLKSGTASVVCLLNNFYPREAKVQWKVDNALQSGNSQESVTEQDSKDSTYSLSSTLTLSKADYEKHKVYACEVTHQGLSSPVTKSFNRGEC
heavy: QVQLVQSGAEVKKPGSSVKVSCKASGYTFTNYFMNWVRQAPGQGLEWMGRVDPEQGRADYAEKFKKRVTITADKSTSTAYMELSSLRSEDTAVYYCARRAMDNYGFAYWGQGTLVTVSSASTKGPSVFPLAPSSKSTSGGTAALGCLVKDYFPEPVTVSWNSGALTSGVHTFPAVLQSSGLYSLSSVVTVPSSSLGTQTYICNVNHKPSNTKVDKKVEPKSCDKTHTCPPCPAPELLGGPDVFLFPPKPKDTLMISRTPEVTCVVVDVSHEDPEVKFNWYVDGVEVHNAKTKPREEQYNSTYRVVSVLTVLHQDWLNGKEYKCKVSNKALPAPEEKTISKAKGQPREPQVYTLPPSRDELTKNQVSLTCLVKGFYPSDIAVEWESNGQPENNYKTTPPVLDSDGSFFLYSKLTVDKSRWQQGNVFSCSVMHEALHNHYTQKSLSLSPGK
notes: also called Antibody 2-7 with protease; not shown: remnant of the cleaved linker (part of VPLSLY and spacer SGG)
EC50 [17]: 0.58 nM
EC50 [18]: 0.58 nM

B8: Antibody 2-14 (antibody, human IgG1, kappa)
light: ACPGKGLPSCGGGSSGGSGVPLSLYSGGEIVLTQSPDFQSVTPKEKVTITCSANSALSYMYWYQQKPDQSPKLWVHGTSNLASGVPSRFSGSGSGTDFTLTINSLEAEDAATYYCHHWSNTQWTFGGGTKVEIKRTVAAPSVFIFPPSDEQLKSGTASVVCLLNNFYPREAKVQWKVDNALQSGNSQESVTEQDSKDSTYSLSSTLTLSKADYEKHKVYACEVTHQGLSSPVTKSFNRGEC
heavy: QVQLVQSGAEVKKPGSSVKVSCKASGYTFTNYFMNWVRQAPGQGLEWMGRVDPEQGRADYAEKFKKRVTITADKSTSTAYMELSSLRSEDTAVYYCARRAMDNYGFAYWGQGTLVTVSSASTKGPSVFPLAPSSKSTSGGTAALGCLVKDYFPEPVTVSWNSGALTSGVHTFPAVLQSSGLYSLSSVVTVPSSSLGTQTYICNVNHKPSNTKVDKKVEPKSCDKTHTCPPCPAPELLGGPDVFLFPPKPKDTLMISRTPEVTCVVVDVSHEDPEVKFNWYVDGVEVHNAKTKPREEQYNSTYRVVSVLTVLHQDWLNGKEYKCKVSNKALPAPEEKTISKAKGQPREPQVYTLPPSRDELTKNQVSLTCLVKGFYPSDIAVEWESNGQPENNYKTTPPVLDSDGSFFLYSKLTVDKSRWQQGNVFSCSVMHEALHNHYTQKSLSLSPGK
EC50 (read off the curve) [19]: ~20 ng/mL
EC50 [7]: 39.4 nM
EC50 (read off the curve) [20]: ~10 nM
EC50 of FcγRIIIa (ADCC) reporter activation, without protease [8]: 33 ng/mL

B9: Antibody 2-15 (antibody, human IgG1, kappa)
light: ACPGKGLPSCGGGSSGGSGGSGGSGSGGEIVLTQSPDFQSVTPKEKVTITCSANSALSYMYWYQQKPDQSPKLWVHGTSNLASGVPSRFSGSGSGTDFTLTINSLEAEDAATYYCHHWSNTQWTFGGGTKVEIKRTVAAPSVFIFPPSDEQLKSGTASVVCLLNNFYPREAKVQWKVDNALQSGNSQESVTEQDSKDSTYSLSSTLTLSKADYEKHKVYACEVTHQGLSSPVTKSFNRGEC
heavy: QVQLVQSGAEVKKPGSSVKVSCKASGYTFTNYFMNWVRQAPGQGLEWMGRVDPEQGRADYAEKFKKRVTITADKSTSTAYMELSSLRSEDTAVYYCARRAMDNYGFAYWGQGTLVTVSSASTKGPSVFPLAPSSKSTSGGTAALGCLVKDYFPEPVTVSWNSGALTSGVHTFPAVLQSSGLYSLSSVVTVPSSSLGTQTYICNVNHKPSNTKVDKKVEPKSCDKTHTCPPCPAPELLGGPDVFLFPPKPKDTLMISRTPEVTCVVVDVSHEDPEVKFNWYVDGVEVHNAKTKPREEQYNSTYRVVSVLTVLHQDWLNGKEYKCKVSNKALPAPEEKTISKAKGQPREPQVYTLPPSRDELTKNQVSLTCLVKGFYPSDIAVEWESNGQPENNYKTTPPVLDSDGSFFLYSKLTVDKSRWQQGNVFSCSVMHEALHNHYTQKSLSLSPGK
EC50 [7]: 24.3 nM
EC50 of FcγRIIIa (ADCC) reporter activation, after exposure to protease [8]: 10 ng/mL
EC50 of FcγRIIIa (ADCC) reporter activation, without protease [8]: 19 ng/mL
EC50 [11]: 17.3 nM
EC50 (read off the curve) [21]: ~7 nM
EC50 (read off the curve) [22]: ~8 nM

Source: patent US20220073613A1 (XILIO DEVELOPMENT, published 2022)
